Target: PSD95 (HA-PSD95, VN-PSD95 plasmids) (UniProt P31016)
Assay: co-immunoprecipitation, GFP-SPIN90 and HA-PSD95
Details: reference: GFP-SPIN90 WT; sites Y85,Y161,Y227

SPIN90 (from UniProt Q9NZQ3) GFP-SPIN90 YF (Y85,161,227F)
binding against the reference: weaker

— publication PMC3544810
